Where two headings read alike, the source gives them in different places. mPEG 20 kDa propionaldehyde = 20 kD methoxy-polyethylene glycol propionaldehyde, N-terminally conjugated

Assay [1] has as its system HCV replicon. Conditions: IFNα at 10 IU/ml, replicon clones, compared to untreated control cell lines; cited from earlier work. (In antiviral work, replicon cells carry a viral genome segment that copies itself.)
Assay [2] has as its system HSV-2. The assay is described as follows: HSV-2 inhibition of cytopathic effect assay in Vero cells. The class given is cell-based, Herpes Simplex Virus-2. To be noted: CPE assay. The method, then:
The assay involves the killing of Vero cells by the cytopathic HSV-2 virus and the inhibition of cell killing by IL-28 and EL-29. The Vero cells are propagated in Dulbecco's modified essential medium (DMEM) containing phenol red with 10% horse serum, 1% glutamine and 1% penicillin-streptomycin, while the CPE inhibition assays are performed in DMEM without phenol red with 2% FBS, 1% glutamine and 1% Pen-Strep. On the day preceding the assays, cells were trypsinized (1% trypsin-EDTA), washed, counted and plated out at 10^4 cells/well in a 96-well flat-bottom BioCoat® plates (Fisher Scientific, Pittsburgh, Pa.) in a volume of 100 μl/well. The next morning, the medium was removed and a pre-titered aliquot of virus was added to the cells. The amount of virus used is the maximum dilution that would yield complete cell killing (>80%) at the time of maximal CPE development. Cell viability is determined using a CellTiter 96® reagent (Promega) according to the manufacturer's protocol, using a Vmax plate reader (Molecular Devices, Sunnyvale, Calif.). Compounds are tested at six concentrations each, diluted in assay medium in a half-log series. Acyclovir was used as a positive control. […] The average background and drug color-corrected data for percent CPE reduction and percent cell viability at each concentration are determined relative to controls and the IC50 calculated relative to the TC50.
(In general: Damage to the host cells serves as the signal in cytopathic effect assays.)

Assay [3] concerns Respiratory syncytial virus. The class given is cell-based.
In assay [4] the test system is Adenovirus. In kind it is cell-based.
Assay [5] deals with Respiratory syncytial virus. The class given is cell-based. To be noted: MA-104 cells, Neutral Red Assay.
The subject of assay [6] is Pichinde virus. In kind it is cell-based.
For assay [7], the system named is HHV-8. Briefly: HHV-8 replication in BCBL-1 cells (TaqMan PCR extracellular HHV-8 DNA; dye uptake TC50). The class given is cell-based, human herpesvirus-8. Conditions: six days. As for the experimental part: The therapeutic index (TI) is calculated as TC50/IC50.
In general terms: Real-time PCR tracks product formation cycle by cycle.

Assay [8] relates to Dengue virus. The class given is cell-based. To be noted: Vero.
For assay [9], the system named is Pichinde virus. The class given is cell-based. The source holds these as a separate data set.
The test system of assay [10] is Coxsackie B4 virus. In kind it is cell-based. Conditions: KB.
In assay [11] the test system is Venezuelan equine encephalitis virus. The class given is cell-based. Conditions: Vero.
In assay [12] the test system is Vaccinia virus. The class given is cell-based. To be noted: Vero.
Assay [13] deals with Dengue virus. In kind it is cell-based. To be noted: Vero cells, Neutral Red Assay.
Assay [14] concerns Parainfluenza virus. The class given is cell-based. Conditions: MA-104 cells, Neutral Red Assay.
Assay [15] relates to Venezuelan equine encephalitis virus. In kind it is cell-based. To be noted: Vero cells, Neutral Red Assay.
Assay [16] deals with Rhino 2. In kind it is cell-based, rhino virus. To be noted: Rhino 2, KB cells, Neutral Red Assay.
Assay [17] concerns Vaccinia virus. The class given is cell-based. To be noted: Vero cells, Neutral Red Assay.
Assay [18] has as its system AML-12 cells. Briefly: ISG induction in the mouse liver cell line AML-12 (real-time PCR). In kind it is cell-based. Conditions: AML-12, 20 ng/ml, 48 hour time point; mRNA relative to HPRT gene expression. The method, then: AML-12 cells were plated in 6-well plates in complete DMEM media at a concentration of 2×10^6 cells/well. […] As a control, cells were either stimulated with mouse IFNα (positive control) or unstimulated (negative). […] RNA was isolated from cell pellets using RNAEasy-kit® (Qiagen, Valencia, Calif.). RNA was treated with DNase (Millipore, Billerica, Mass.) to clean RNA of any contaminating DNA. cDNA was generated using Perkin-Elmer RT mix. ISG gene induction was evaluated by real-time PCR using primers and probes specific for mouse OAS, Pkr and Mx1. To obtain quantitative data, HPRT real-time PCR was duplexed with ISG PCR. A standard curve was obtained using known amounts of RNA from IFN-stimulated mouse PBLs. All data are shown as expression relative to internal HPRT expression.

Assay [19] relates to 293 HEK cells overexpressing zcytor19. The assay is described as follows: Inhibition of ligand-induced ISRE-luciferase signaling by soluble receptors. In kind it is cell-based, human. Conditions: 10 ng/ml ligand, 10 micrograms/ml soluble receptor, 4-hour; relative to PBS alone.
Assay [20] concerns West Nile virus. In kind it is cell-based. Conditions: Vero.
For assay [21], the system named is West Nile virus. The class given is cell-based. Conditions: Vero cells, Neutral Red Assay.
Assay [22] deals with Influenza (type A [H3N2]). The class given is cell-based. To be noted: Vero cells, Neutral Red Assay.
For assay [23], the system named is Influenza (type A [H3N2]). The class given is cell-based. To be noted: Vero.
In assay [24] the test system is Polio virus. The class given is cell-based. Conditions: Vero cells, Neutral Red Assay.
Assay [25] relates to Rhino 9. The class given is cell-based, rhino virus. To be noted: Rhino 9, HeLa cells, Neutral Red Assay.
The subject of assay [26] is Rhino 9. In kind it is cell-based, rhino virus. Conditions: Rhino 9, HeLa.
For assay [27], the system named is Rhino 2. In kind it is cell-based, rhino virus. Conditions: Rhino 2, KB.
The subject of assay [28] is Adenovirus. The class given is cell-based. To be noted: A549 cells, Neutral Red Assay.
In assay [29] the test system is Parainfluenza virus. The class given is cell-based.
For assay [30], the system named is Coxsackie B4 virus. The class given is cell-based. Conditions: KB cells, Neutral Red Assay.
Assay [31] relates to Polio virus. The class given is cell-based. Conditions: Vero.
Assay [32] relates to liver, spleen and blood of mice. The assay is described as follows: ISG gene expression (OAS, Pkr, Mx1) in liver, spleen and blood of injected C57BL/6 mice (real-time PCR). To be noted: C57BL/6 mice, i.p or i.v, 10 μg-250 μg. In kind it is in vivo, mouse. The method, then: Mice were sacrificed at various time points (1 hr-48 hr). Spleens and livers were isolated from mice, and RNA was isolated. RNA was also isolated from the blood cells. The cells were pelleted and RNA isolated from pellets using RNAEasy®-kit (Qiagen). RNA was treated with DNase (Amicon) to rid RNA of any contaminating DNA. cDNA was generated using Perkin-Elmer RT mix (Perkin-Elmer). ISG gene induction was measured by real-time PCR using primers and probes specific for mouse OAS, Pkr and Mx1. To obtain quantitative data, HPRT real-time PCR was duplexed with ISG PCR. A standard curve was calculated using known amounts of IFN-stimulated mouse PBLs. All data are shown as expression relative to internal HPRT expression.

The test system of assay [33] is Influenza (type A [H3N2]). In kind it is cell-based. Conditions: Maden-Darby Canine Kidney.
Assay [34] concerns Influenza (type A [H3N2]). In kind it is cell-based. To be noted: Maden-Darby Canine Kidney cells, Neutral Red Assay.
The subject of assay [35] is HCV replicon. The assay is described as follows: HCV Replicon model in AVA5 cells, HCV RNA by dot blot hybridization assay. Conditions: three consecutive days of treatment.
The test system of assay [36] is Daudi cells. The assay is described as follows: Daudi cell proliferation (Alamar Blue). In kind it is cell-based, human. Conditions: 1000 ng/ml to 0.5 ng/ml, 72 h. The method, then:
Human Daudi cells were suspended in RPMI+10% FBS at 50,000 cells/milliliter and 5000 cells were plated per well in a 96 well plate. […] IL-29-CEE was used at a concentration range of from 1000 ng/ml to 0.5 ng/ml. […] IFN-α2a was used at a concentration range of from 62 ng/ml to 0.03 ng/ml. Cells were incubated for 72 h at 37° C.

As to IFNα, the “reduction of the amount of HCV RNA” value in assay [1] is on record as 85%. Further, the “antiviral activity against HSV-2” value in assay [2] is reported as “no antiviral activity”.

B1: IL-28A: human IL-28A cytokine polypeptide (zcyto20), e.g. SEQ ID NO:18; CHO-derived in Examples 16 and 18 (protein, listed as Homo sapiens)
chain: MKLDMTGDCTPVLVLMAAVLTVTGAVPVARLHGALPDARGCHIAQFKSLSPQELQAFKRAKDALEESLLLKDCRCHSRLFPRTWDLRQLQVRERPMALEAELALTLKVLEATADTDPALVDVLDQPLHTLHHILSQFRACIQPQPTAGPRTRGRLHHWLYRLQEAPKKESPGCLEASVTFNLFRLLTRDLNCVASGDLCV
modifications: SIGNAL (1)...(25)
With B1, the “EC50 Visual” value in [3] (MA-104) is over 10 µg/mL; in [4] (A549), over 10 µg/mL; in assay [8], 0.01 µg/mL; in assay [9], over 10 µg/mL; in [10] it was over 10 µg/mL; in [11], 0.01 µg/mL. The “EC50 Visual” value is over 10 µg/mL in [12]; 0.01 ng/mL in [20]; 0.1 µg/mL in assay [23]; over 10 µg/mL in [26]; over 10 µg/mL in assay [27]; over 10 µg/mL in assay [29] (MA-104). Further, the “EC50 Visual” value in assay [31] and in [33] was over 10 µg/mL in each case. Moreover, the “IC50 Visual” value in assay [3] (MA-104, numerator of SI) is over 10 µg/mL; in [4] (A549, numerator of SI), over 10 µg/mL; in assay [8] (numerator of SI), over 10 µg/mL; in assay [9] it was over 10 µg/mL; in assay [10] (numerator of SI), over 10 µg/mL; in assay [11] (numerator of SI), over 10 µg/mL. In addition, the “IC50 Visual” value in assay [12] (numerator of SI) was over 10 µg/mL; in [20] (numerator of SI), over 10 µg/mL; in assay [23] (numerator of SI), over 10 µg/mL; in assay [26] (numerator of SI), over 10 µg/mL; in [27] (numerator of SI), over 10 µg/mL; in assay [29] (MA-104, numerator of SI), over 10 µg/mL. Moreover, the “IC50 Visual” value in assay [31] (numerator of SI) and in assay [33] (numerator of SI) was over 10 µg/mL throughout. Further, the “EC50 NR” value in assay [5] was over 10 µg/mL; in assay [6] it was over 10 µg/mL; in assay [13], 0.1 µg/mL; in assay [14], over 10 µg/mL; in assay [15], 0.035 µg/mL; in [16], over 10 µg/mL. The “EC50 NR” value is over 10 µg/mL in assay [17]; 0.1 ng/mL in [21]; 0.25 µg/mL in assay [22]; over 1.672 µg/mL in assay [24]; 1.726 µg/mL in assay [25]; over 10 µg/mL in assay [28]. Moreover, the “EC50 NR” value in [30] and in [34] was over 10 µg/mL each time. In addition, the “IC50 NR” value in assay [5], in [6], in [13], in assay [14], in assay [15] and in assay [16] was over 10 µg/mL in each case. Moreover, the “IC50 NR” value in [17], in assay [21], in assay [22], in assay [24], in assay [25] and in assay [28] was over 10 µg/mL each time. For the same molecule, the “IC50 NR” value in assay [30] and in [34] was over 10 µg/mL each time. Besides, the “IC50 (extracellular HHV-8 DNA)” value in assay [7] was 1 µg/mL. Further, in assay [18], the Mx1 is 0.06. The molecule further yielded an OAS in [18] of 0.04. The molecule further displayed a PkR in assay [18] of 0.02. For the same molecule, the “Percent Inhibition of Ligand-induced ISRE Signaling by HuCRF2-4-Fc” value in assay [19] came to 80%. The “Percent Inhibition of Ligand-induced ISRE Signaling by Huzcytor19-Fc” value in assay [19] came out at 92%. For the same molecule, in [19], the “Percent Inhibition of Ligand-induced ISRE Signaling by Huzcytor19-Fc/huCRF2-4-Fc” value worked out at 16%. The “Percent Inhibition of Ligand-induced ISRE Signaling by Muzcytor19-Ig” value in assay [19] came to 91%. The “ISG gene expression (OAS, Pkr, Mx1) in the livers, spleen and blood of mice” value in assay [32] is on record as “did not induce ISG gene expression”.

B2: PEG-rIL-29-d2-7 (conjugate)
chain: {mPEG 20 kDa propionaldehyde}-MKPTTTGKGCHIGRFKSLSPQELASFKKARDALEESLKLKNWSCSSPVFPGNWDLRLLQVRERPVALEAELALTLKVLEAAAGPALEDVLDQPLHTLHHILSQLQACIQPQPTAGPRPRGRLHHWLHRLQEAPKKESAGCLEASVTFNLFRLLTRDLKYVADGNLSLRTSTHPEST
As for B2, the “EC50 (HCV RNA, dot blot hybridization assay)” value in assay [35] came to 0.000516 µg/mL.

B3: IL-29-CEE: IL-29 conjugated with glu tag (protein, UniProt Q8IU54 20-200, looked up)
Interferon lambda-1: GPVPTSKPTTTGKGCHIGRFKSLSPQELASFKKARDALEESLKLKNWSCSSPVFPGNWDLRLLQVRERPVALEAELALTLKVLEAAAGPALEDVLDQPLHTLHHILSQLQACIQPQPTAGPRPRGRLHHWLHRLQEAPKKESAGCLEASVTFNLFRLLTRDLKYVADGNLCLRTSTHPEST
modifications: Glu-Glu tag
notes: IL-29 conjugated with glu tag
Turning to B3, the “effect on proliferation of Daudi cells” value in assay [36] is on record as “no significant effect”.
